Experimental data published in publication PMC2885149.

Biological target: adeno-associated virus serotype 3B (AAV-3B) capsid protein subunit (adeno-associated virus serotype 3B)
Experiment: crystal structure

“adeno-associated virus serotype 3B (AAV-3B) capsid protein subunit (natural protein)” gave a stoichiometry N of 60.
